Our source for the Kd, koff and stoichiometry N values is paper PMC2840211.

In one assay the target is RAE-1δ (Mus musculus) (UniProt Q9JI58). Particulars: cited from earlier work.
Assay [1] deals with ectodomain of m152 (mouse cytomegalovirus m152/gp40 immunoevasin) (mouse cytomegalovirus (MCMV)). The assay can be described thus: AUC.
For assay [2] the target is unchanged. Nature of the assay: ITC.
For assay [3] the target is unchanged. Nature of the assay: AUC. The source holds these as a separate data set.

Sequence of UniProt Q9JI58 (Q9JI58 29-225, stated change not applied): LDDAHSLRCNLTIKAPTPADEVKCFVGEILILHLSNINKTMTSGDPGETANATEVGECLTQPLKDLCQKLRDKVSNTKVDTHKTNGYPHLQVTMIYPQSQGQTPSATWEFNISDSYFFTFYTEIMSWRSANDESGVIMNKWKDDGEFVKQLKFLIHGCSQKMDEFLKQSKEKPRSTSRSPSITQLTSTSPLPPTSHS

Usually Kd stands for a measure of binding affinity in units of concentration. Regarding NKG2D (from UniProt O54709), the Kd with RAE-1δ (Mus musculus) was 0.726 µM.

B1: ectodomain of RAE-1γ PLWY-deletion mutant (domain or fragment)
chain: GLDDAHSLRCNLTIKAPTPADEAKCLVDEILILHLSNINKTMTSGDPGETANATEVGECLTQPVNDLCQKLRDKVSNTKVDTHKTNGYPHLQVTMIYPQSQGQTPSATWEFNISDSYFFTFYTENMSWRSANDESGVIMNKWNDDGDLVQRLKYFIPECRQKIDEFLKQSKEKP
In assay [1], B1 showed a Kd of 1.4 µM.

B2: ectodomain of RAE-1γ (domain or fragment)
chain: GLDDAHSLRCNLTIKAPTPADPLWYEAKCLVDEILILHLSNINKTMTSGDPGETANATEVGECLTQPVNDLCQKLRDKVSNTKVDTHKTNGYPHLQVTMIYPQSQGQTPSATWEFNISDSYFFTFYTENMSWRSANDESGVIMNKWNDDGDLVQRLKYFIPECRQKIDEFLKQSKEKP
In turn, B2 returned a Kd in assay [1] of 1 µM.

B3: ectodomain of RAE-1β (domain or fragment)
chain: GLDDAHSLRCNLTIKDPTPADPLWYEAKCFVGEILILHLSNINKTMTSGDPGETANATEVKKCLTQPLKNLCQKLRNKVSNTKVDTHKTNGYPHLQVTMIYPQSQGRTPSATWEFNISDSYFFTFYTENMSWRSANDESGVIMNKWKDDGEFVKQLKFLIHECSQKMDEFLKQSKEKP
A word on the koff: it is the rate constant with which the complex falls apart. As usually defined, the stoichiometry N is a count of units in the complex or per binding partner. The molecule B3 displayed a Kd in assay [2] of 2.1 µM. Also, in assay [3], the dissociation constant Kd was determined as 1.7 µM. Moreover, in assay [1], the Kd was found to be 4.1 µM, the koff was over 0.001 s⁻¹ and the stoichiometry N is 1.

B4: ectodomain of RAE-1β PLWY-deletion mutant (domain or fragment)
chain: GLDDAHSLRCNLTIKDPTPADEAKCFVGEILILHLSNINKTMTSGDPGETANATEVKKCLTQPLKNLCQKLRNKVSNTKVDTHKTNGYPHLQVTMIYPQSQGRTPSATWEFNISDSYFFTFYTENMSWRSANDESGVIMNKWKDDGEFVKQLKFLIHECSQKMDEFLKQSKEKP
Consider B4, for which the Kd in assay [1] is 31 µM.

B5: ectodomain of RAE-1δ (domain or fragment)
chain: GLDDAHSLRCNLTIKAPTPADEVKCFVGEILILHLSNINKTMTSGDPGETANATEVGECLTQPLKDLCQKLRDKVSNTKVDTHKTNGYPHLQVTMIYPQSQGQTPSATWEFNISDSYFFTFYTEIMSWRSANDESGVIMNKWKDDGEFVKQLKFLIHGCSQKMDEFLKQSKEKP
In the case of B5, the Kd in assay [1] was 34 µM.
